# Source: patent US20240400715A1 (VIBRANT PHARMA, published 2024)
# Residue numbers refer to the chain shown, from its start. “And” between values parts separate entries of the source, which are not always exact repeats. Equal entries are not always repeated.
# B1: Fab-Knob+CEA-Hole (101) (bispecific antibody, human IgG4 S228P, kappa, F234A L235A)
# heavy: EVKLLESGGGLVQPKGSLKLSCAASGFTFNTYAMNWVRQAPGKGLEWVARIRSKYNNYATYYADSVKDRFTISRDDSQSILYLQMNNLKTEDTAMYYCVRHGNFGNSYVSWFAYWGQGTLVTVSSASTKGPSVFPLAPCSRSTSESTAALGCLVKDYFPEPVTVSWNSGALTSGVHTFPAVLQSSGLYSLSSVVTVPSSSLGTKTYTCNVDHKPSNTKVDKRVESKYGPPCPPCPAPEAAGGPSVFLFPPKPKDTLMISRTPEVTCVVVDVSQEDPEVQFNWYVDGVEVHNAKTKPREEQFNSTYRVVSVLTVLHQDWLNGKEYKCKVSNKGLPSSIEKTISKAKGQPREPQVYTLPPCQEEMTKNQVSLWCLVKGFYPSDIAVEWESNGQPENNYKTTPPVLDSDGSFFLYSRLTVDKSRWQEGNVFSCSVMHEALHNHYTQKSLSLSL
# chain: EVQLVESGGGFVQAGESLTLSCTSSTLTFTPYRMAWYRQAPGKQRDLVADISSGDGRTTNYADFAKGRFTISRDNIKNTVFLRMTNLKPEDTAVYYCNTFVSFVGIARSWGQGTQVTVSSESKYGPPCPPCPAPEAAGGPSVFLFPPKPKDTLMISRTPEVTCVVVDVSQEDPEVQFNWYVDGVEVHNAKTKPREEQFNSTYRVVSVLTVLHQDWLNGKEYKCKVSNKGLPSSIEKTISKAKGQPREPQVCTLPPSQEEMTKNQVSLSCAVKGFYPSDIAVEWESNGQPENNYKTTPPVLDSDGSFFLVSRLTVDKSRWQEGNVFSCSVMHEALHNRFTQKSLSLSL
# light: QAVVTQESALTTSPGETVTLTCRSSTGAVTTSNYANWVQEKPDHLFTGLIGGTNKRAPGVPARFSGSLIGDKAALTITGAQTEDEAIYFCALWYSNLWVFGGGTKVEIKRTVAAPSVFIFPPSDEQLKSGTASVVCLLNNFYPREAKVQWKVDNALQSGNSQESVTEQDSKDSTYSLSSTLTLSKADYEKHKVYACEVTHQGLSSPVTKSFNRGEC
# notes: Anti-CD3 TA1 Fab + anti-CEA VHH C17 on human IgG4 knob-into-hole Fc, kappa light chain
# B2: CEA-Fab-Knob-+Hole (201) (bispecific antibody, human IgG4 S228P, kappa, F234A L235A)
# heavy: B1 heavy
# chain: ESKYGPPCPPCPAPEAAGGPSVFLFPPKPKDTLMISRTPEVTCVVVDVSQEDPEVQFNWYVDGVEVHNAKTKPREEQFNSTYRVVSVLTVLHQDWLNGKEYKCKVSNKGLPSSIEKTISKAKGQPREPQVCTLPPSQEEMTKNQVSLSCAVKGFYPSDIAVEWESNGQPENNYKTTPPVLDSDGSFFLVSRLTVDKSRWQEGNVFSCSVMHEALHNRFTQKSLSLSL
# light: QAVVTQESALTTSPGETVTLTCRSSTGAVTTSNYANWVQEKPDHLFTGLIGGTNKRAPGVPARFSGSLIGDKAALTITGAQTEDEAIYFCALWYSNLWVFGGGTKVEIKRTVAAPSVFIFPPSDEQLKSGTASVVCLLNNFYPREAKVQWKVDNALQSGNSQESVTEQDSKDSTYSLSSTLTLSKADYEKHKVYACEVTHQGLSSPVTKSFNRGECGGGGSGGGGSEVQLVESGGGFVQAGESLTLSCTSSTLTFTPYRMAWYRQAPGKQRDLVADISSGDGRTTNYADFAKGRFTISRDNIKNTVFLRMTNLKPEDTAVYYCNTFVSFVGIARSWGQGTQVTVSS
# notes: VHH linked to the CL of the Fab; human IgG4 knob-into-hole Fc
# B3: 302 (TA3), configuration of FIG. 1W (bispecific antibody, IgG4)
# heavy: EVQLVESGGGLVQPGGSLRLSCAASGYSFTGYTMNWVRQAPGKGLEWVALINPYKGVSTYNQKFKDRFTISVDKSKNTAYLQMNSLRAEDTAVYYCARSGYYGDSDWYFDVWGQGTLVTVSSASTKGPSVFPLAPCSRSTSESTAALGCLVKDYFPEPVTVSWNSGALTSGVHTFPAVLQSSGLYSLSSVVTVPSSSLGTKTYTCNVDHKPSNTKVDKRVESKYGPPCPPCPAPEAAGGPSVFLFPPKPKDTLMISRTPEVTCVVVDVSQEDPEVQFNWYVDGVEVHNAKTKPREEQFNSTYRVVSVLTVLHQDWLNGKEYKCKVSNKGLPSSIEKTISKAKGQPREPQVYTLPPCQEEMTKNQVSLWCLVKGFYPSDIAVEWESNGQPENNYKTTPPVLDSDGSFFLYSRLTVDKSRWQEGNVFSCSVMHEALHNHYTQKSLSLSL
# chain: B1 chain
# light: DIQMTQSPSSLSASVGDRVTITCRASQDIRNYLNWYQQKPGKAPKLLIYYTSRLESGVPSRFSGSGSGTDYTLTISSLQPEDFATYYCQQGNTLPWTFGQGTKVEIK
# notes: chains put together from VH/VL, CH1, knob-Fc; IgG4, kappa; also called CEA-CD3 bispecific antibody 302; not shown: kappa light chain constant domain (CL)
# B4: Fab-Knob-CEA+Hole (102) (bispecific antibody, human IgG4 S228P, kappa, F234A L235A)
# heavy: EVKLLESGGGLVQPKGSLKLSCAASGFTFNTYAMNWVRQAPGKGLEWVARIRSKYNNYATYYADSVKDRFTISRDDSQSILYLQMNNLKTEDTAMYYCVRHGNFGNSYVSWFAYWGQGTLVTVSSASTKGPSVFPLAPCSRSTSESTAALGCLVKDYFPEPVTVSWNSGALTSGVHTFPAVLQSSGLYSLSSVVTVPSSSLGTKTYTCNVDHKPSNTKVDKRVESKYGPPCPPCPAPEAAGGPSVFLFPPKPKDTLMISRTPEVTCVVVDVSQEDPEVQFNWYVDGVEVHNAKTKPREEQFNSTYRVVSVLTVLHQDWLNGKEYKCKVSNKGLPSSIEKTISKAKGQPREPQVYTLPPCQEEMTKNQVSLWCLVKGFYPSDIAVEWESNGQPENNYKTTPPVLDSDGSFFLYSRLTVDKSRWQEGNVFSCSVMHEALHNHYTQKSLSLSLGGGGSGGGGSEVQLVESGGGFVQAGESLTLSCTSSTLTFTPYRMAWYRQAPGKQRDLVADISSGDGRTTNYADFAKGRFTISRDNIKNTVFLRMTNLKPEDTAVYYCNTFVSFVGIARSWGQGTQVTVSS
# chain: B2 chain
# light: B1 light
# notes: Anti-CD3 TA1 Fab + anti-CEA VHH C17 on human IgG4 knob-into-hole Fc
# B5: Knob+CEA-Fab-Hole (202) (bispecific antibody, human IgG4 S228P, kappa, F234A L235A)
# chain: B2 chain with C131Y, S136C, S148W, A150L, V189Y, R217H, F218Y
# heavy: B1 heavy with Y354C, C359S, W371S, L373A, Y412V, H440R, Y441F
# light: B2 light
# notes: as for B2
# Biological target: T1, human CD3 on Jurkat cells (human, UniProt P07766 23-207; P04234 22-171; P09693 23-182)
# T1 construct: whole, on cells; CD3 complex as on Jurkat (Clone E6-1) cells; also called CD3 expressing cells (Jurkat)
# Assay: FACS, Jurkat cells;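 note: flow cytometric binding of bispecific antibodies to Jurkat T cells, threefold serial dilutions incubated half an hour in the cold, EC50 taken from the fitted binding curve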
# Description: The binding of the bispecific antibodies was tested on the CA expressing human lung adenocarcinoma cell line (H1573) and the CD3 expressing immortalized T lymphocyte line (Jurkat). The steps are as follows: the cells were harvested, counted, and resuspended in FACS buffer (PBS containing 0.1% BSA) at 2×10⁶ cells/ml. 100 μl of cell suspension was incubated in a V-bottom 96-well plate at 4° C. with 3-fold serial dilutions of bispecific antibodies (20 μg/ml-0.009 μg/ml) for 30 minutes; washed twice with pre-cooled FACS buffer. […] GraphPadPrism was used to obtain the binding curve.
row,EC50,Binder
1,6.28 µg/mL and 48.3 nM,B1
2,0.312 µg/mL and 2.4 nM,B2
3,1.4 µg/mL and 10.8 nM,B3
4,0.592 µg/mL and 4.55 nM,B4
5,0.292 µg/mL and 2.25 nM,B5

# Biological target: T2, human CD3ε/δ (ACRO systems, CDD-H52W1) (human, UniProt P07766 23-126; P04234 22-105)
# T2 construct: Bought protein; also called human CD3ϵ/CD3δ; human CD3 epsilon/delta antigen
# Assay: BLI, antibody captured, antigen in solution;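 note: bispecific antibodies captured on AHIC biosensors to a 1.5 nm loading signal, in PBST with 0.02% detergent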
# Description: The bispecific antibodies were diluted to 5 ag/ml, and 1.5 nm protein was coupled to the surface of the AHIC sensor chip through 0.02% PBST.
Kd [nM],koff [s⁻¹],kon [M⁻¹ s⁻¹],Binder
0.979,0.0004,409000,B1
2.59,0.00046,178000,B2
3.63,0.000879,246000,B3
0.984,0.000327,333000,B4
3.9,0.000866,222000,B5
